Reference: paper PMC9943664

System: MBP-DDX3X (human)
Experiment: EMSA
Conditions: DDX3X EMSA: 40 mM Tris-Cl pH 8, 50 mM NaCl, 0.5 mM MgCl2, 2 mM DTT, 0.01% NP40, 2 mM AMP-PNP/MgCl2, 37 C 30 min, UV 254 nm 3 min, 6% native PAGE in 0.5x TB + …

synthetic tRNA-LysUUU gave a Kd (none (unmodified)) of 431 nM.

For endogenous tRNA-LysUUU/CUU, the Kd (native post-transcriptional modifications (not listed)) was 83.4 nM.
